Experimental data from article PMC3024946, “Hydroxyproline-containing collagen analogs trigger the release and activation of collagen-sequestered proMMP-2 by competition with prodomain-derived peptide P33-42” (Fibrogenesis & Tissue Repair, 2011).

B1: ProMMP-2: 72-kDa latent proform of human recombinant MMP-2 (protein)
chain: APSPIIKFPGDVAPKTDKELAVQYLNTFYGCPKESCNLFVLKDTLKKMQKFFGLPQTGDLDQNTIETMRKPRCGNPDVANYNFFPRKPKWDKNQITYRIIGYTPDLDPETVDDAFARAFQVWSDVTPLRFSRIHDGEADIMINFGRWEHGDGYPFDGKDGLLAHAFAPGTGVGGDSHFDDDELWTLGEGQVVRVKYGNADGEYCKFPFLFNGKEYNSCTDTGRSDGFLWCSTTYNFEKDGKYGFCPHEALFTMGGNAEGQPCKFPFRFQGTSYDSCTTEGRTDGYRWCGTTEDYDRDKKYGFCPETAMSTVGGNSEGAPCVFPFTFLGNKYESCTSAGRSDGKMWCATTANYDDDRKWGFCPDQGYSLFLVAAHEFGHAMGLEHSQDPGALMAPIYTYTKNFRLSQDDIKGIQELYGASPDIDLGTGPTPTLGPVTPEICKQDIVFDGIAQIRGEIFFFKDRFIWRTVTPRDKPMGPLLVATFWPELPEKIDAVYEAPQEEKAVFFAGNEYWIYSASTLERGYPKPLTSLGLPPDVQRVDAAFNWSKNKKTYIFAGDKFWRYNEVKKKMDPGFPKLIADAWNAIPDNLDAVVDLQGGGHSYFFKGAYYLKLENQSLKSVKFGSIKSDWLGC
modifications: [125I]-Bolton-Hunter label in the solid-phase assays (dot blot, microwells); Cy2 label in the tissue release experiment; no label told for SPR and immunohistochemistry
B2: ProMMP-9: 92-kDa latent proform of human recombinant MMP-9 (protein)
chain: APRQRQSTLVLFPGDLRTNLTDRQLAEEYLYRYGYTRVAEMRGESKSLGPALLLLQKQLSLPETGELDSATLKAMRTPRCGVPDLGRFQTFEGDLKWHHHNITYWIQNYSEDLPRAVIDDAFARAFALWSAVTPLTFTRVYSRDADIVIQFGVAEHGDGYPFDGKDGLLAHAFPPGPGIQGDAHFDDDELWSLGKGVVVPTRFGNADGAACHFPFIFEGRSYSACTTDGRSDGLPWCSTTANYDTDDRFGFCPSERLYTQDGNADGKPCQFPFIFQGQSYSACTTDGRSDGYRWCATTANYDRDKLFGFCPTRADSTVMGGNSAGELCVFPFTFLGKEYSTCTSEGRGDGRLWCATTSNFDSDKKWGFCPDQGYSLFLVAAHEFGHALGLDHSSVPEALMYPMYRFTEGPPLHKDDVNGIRHLYGPRPEPEPRPPTTTTPQPTAPPTVCPTGPPTVHPSERPTAGPTGPPSAGPTGPPTAGPSTATTVPLSPVDDACNVNIFDAIAEIGNQLYLFKDGKYWRFSEGRGSRPQGPFLIADKWPALPRKLDSVFEERLSKKLFFFSGRQVWVYTGASVLGPRRLDKLGLGADVAQVTGALRSGRGKMLLFSGRRLWRFDVKAQMVDPRSASEVDRMFPGVPLDTHDVFQYREKAYFCQDRFYWRVSSRSELNQVDQVGYVTYDILQCPED
modifications: [125I]-Bolton-Hunter label in the solid-phase assays (dot blot, microwells); no label told for SPR and immunohistochemistry

Experiments:
[1] = In situ binding of MMPs to fibrotic liver sections; design: species or system human; conditions: immunohistochemistry; 25 ng MMP, 30 min
Description: Human cirrhotic liver cryostat sections (5 μm) were air-dried and fixed in ice-cold acetone for 10 min. Tissue sections were rehydrated with PBS and incubated with 25 ng/50 μl of the respective proMMP and actMMP for 30 min or were left untreated. After thorough washing with PBS, antibodies specific for human MMP-9 (clone MAB911; R&D Systems, Minneapolis, MN, USA) and human MMP-2 (clone 75-7F7; Oncogene, Cambridge, MA, USA) were applied, and primary antibody binding was detected using the alkaline phosphatase-antialkaline phosphatase detection system (Dako, Hamburg, Germany). An irrelevant primary mouse antibody served as control. Nuclei were counterstained with Hemalaun, and slides were examined by standard light microscopy.

ProMMP-2 = assay: DQ-gelatine degradation assay with MMP-2; assay type: biochemical, human; conditions: MMP alone; 10 ng; 5 h at 25°C; plateau (actMMP-2) or baseline (proMMP-2) level
collagen type I (CI) [2] = assay: SPR binding of MMP-2 to CI, MMP activity buffer with Ro 28-2653; design: species or system human
Description: (§1) Sensor chip preparations and SPR measurements were performed using a BiacoreX device and the Bia-evaluation software (version 3.2; Biacore, Uppsala, Sweden). The pepsin-resistant triple-helical part of human fibrillar CI (100 μg/ml) in 10 mM acetate coupling buffer, pH 4.8, was immobilized to a dextran matrix-sensor chip at a flow rate of 5 μl/min, resulting in 5,500 resonance units from CI covalently linked via its primary amino groups. The control flow cell was prepared using the coupling buffer without CI. Surfaces were activated and blocked as described previously. Immediately after thawing, pro- and actMMP-2 and pro- and actMMP-9 were diluted to 100 to 250 nM in MMP activity buffer or in PBS and 0.05% (vol/vol) Tween 20. For SPR measurements, flow rates were 10 μl/min at 25°C, and equilibrium was typically reached after 30 to 60 s. The effects of (GPO)10, GAP, (POG)5, (GPP)10 and P33-42 on MMP-2 and MMP-9 binding to CI and their enzymatic activity were determined by adding the binding competitors to the (pro- and act)MMP-2 and MMP-9 solution in 10- to 150-fold molar excesses. Effects independent of MMP-2 and MMP-9 activity were monitored in the presence of Ro 28-2653 (1 μM) during SPR analysis. The gelatinase inhibitor Ro 28-2653 was a generous gift from H.-W. Krell (Roche, Grenzach-Wyhlen, Germany). Sensor surfaces were regenerated with 10 mM glycine, pH 2.3, for 1 min between runs, and sensor chips were used up to 25 times. Kinetic parameters were analyzed using the 1:1 binding model with drifting baseline and subtraction of the control flow cell binding from sensorgrams obtained with immobilized CI. Binding constants (Kd) were calculated from the association (ka) and dissociation rates (kd) obtained from individual binding curves at different concentrations. Individual drifts of the resonance signal were fitted locally, and χ^2 values of 0.2% to 1.0% of the maximum resonance value were considered good fits.

collagen type I (CI) [3] = assay: SPR binding of MMPs to immobilized CI, nonactivating buffer; design: species or system human; conditions: for Off rate / Kd: without (GPO)10, MMP 100 nM, PBS, 0.05% Tween 20, 25°C; for Off rate: mean from at least three experiments; for Kd: mean ± SD, at least three experiments
Description: as §1

Molecule | binding to liver sections [1] | DQ-gelatine conversion (ProMMP-2) | reduction of binding upon MMP activation (collagen type I (CI) [2]; MMP activity buffer with Ro 28-2653) | binding enhancement to CI (collagen type I (CI) [2]; MMP activity buffer with Ro 28-2653 vs nonactivating buffer) | Kd (collagen type I (CI) [2]; no competitor, MMP-2 100 nM, MMP activity buffer, 1 μM Ro 28-2653, 25°C, mean ± SD, at least three experiments) | reduction of binding upon MMP activation (collagen type I (CI) [3]; nonactivating buffer) | Off rate (collagen type I (CI) [3]) | Kd (collagen type I (CI) [3])
B1 | preferential staining of fibrotic septa | about 200 relative fluorescence units | 35 -fold | 10 -fold | 7.1 ± 0.1 nM | 2.5 -fold | ~0.48 s⁻¹ | 70 ± 30 nM
B2 | preferential staining of fibrotic septa | – | – | – | – | – | 0.32 s⁻¹ | 120 ± 90 nM
